Experimental data taken from PMC4627827, “SCARN a Novel Class of SCAR Protein That Is Required for Root-Hair Infection during Legume Nodulation”.

Experiments:
[1] = target: LjARPC3 (yeast two-hybrid fusion) (Lotus japonicus); test: two-hybrid; S. cerevisiae AH109; quantitative β-galactosidase (lacZ) activity under the control of the GAL4 promoter
[2] = target: NIN C-terminal half (RWP-RK domain) (Lotus japonicus, UniProt Q9S7B1 520-878); test: EMSA; 0.5 or 1 ug protein; unlabeled competitor 5x, 10x or 50x; EMSA with LightShift chemiluminescent kit (Thermo); buffer, salt, pH and temperature not stated; conditions: protein: recombinant; tags: C-terminal His; label: biotin; blunt
Sequence of NIN C-terminal half (RWP-RK domain) (Q9S7B1 entry or part of it): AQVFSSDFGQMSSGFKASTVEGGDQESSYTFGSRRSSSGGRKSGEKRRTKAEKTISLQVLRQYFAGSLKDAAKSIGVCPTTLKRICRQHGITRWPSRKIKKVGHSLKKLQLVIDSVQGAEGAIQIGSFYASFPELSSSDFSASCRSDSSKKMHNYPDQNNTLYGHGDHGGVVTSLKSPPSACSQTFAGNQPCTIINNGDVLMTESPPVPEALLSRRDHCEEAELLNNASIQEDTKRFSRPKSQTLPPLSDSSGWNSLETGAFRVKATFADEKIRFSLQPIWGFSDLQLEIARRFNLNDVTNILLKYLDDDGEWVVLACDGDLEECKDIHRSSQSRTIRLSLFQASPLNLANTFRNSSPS

For “SCARN C-terminal WA domain (yeast two-hybrid fusion) (domain or fragment)”, the β-galactosidase (LacZ) activity [1] was 18.1 units.

B1: SCARN promoter S2 (dsDNA)
DNA 1: AAGAGGTGAAACTGAAGGAGTCAAGAGGATTGCAGAAGAA
DNA 2: TTCTTCTGCAATCCTCTTGACTCCTTCAGTTTCACCTCTT
B1: binds [2].

B2: SCARN promoter S1 (dsDNA)
DNA 1: GTAGTAGAGAGATAGAGTGAGTGAAAGGGTTTGAGGAATG
DNA 2: CATTCCTCAAACCCTTTCACTCACTCTATCTCTCTACTAC
B2: binds [2].

B3: SCARN promoter S3 (dsDNA)
DNA 1: AGTCAAGAGGATTGCAGAAGAAAGTAGGGTTTGTGAATCG
DNA 2: CGATTCACAAACCCTACTTTCTTCTGCAATCCTCTTGACT
B3: binds [2].
